Data taken from the DeepSol protein solubility set.

Assay: soluble on expression in E. coli; label from the status in PepcDB or PDB records

Row | Sequence | soluble on expression in E. coli
1 | MLCDSLPTASRTAAAILNLAQREDVTAEALAQLIQTDPALTGRILRFANAPAQGTRRPVASVIDAIDLVGLPAVRQFALSLSLIDAHREGRCEAFDYAAYWQKSLARAVALQSITAQASTVAPKEAFTLGLLADVGRLALATAWPEEYSECLRKADGEALIALERERFATDHDELTRMLLTDWGFPQVFIDALQLSQQDEIRDEGRTGRFARQLALAQHIADHRLAEEPRRAALSPLLRAEARRCGLGDEDLARLLADPPADWLDWTRTIGLPGDAPTGGAEPSRPPPQTDEKLHVLLADDDPIMLARLSRQLEADGHHVASRRDGETALAYALEHQPEMVITDWHMKPMNGLELCRALRESALGGNVYIVMLTASESEDALVEAFGAGIDDYVIKPPSVRVLKARIRAGQRIITLHKKLARERKEIERYSSELAAANRRLELMAHTDQLTGLPNRRYAMDRLEREWAQARTFDRPLSIMMLDLDWFKSINDSLGHDAGDQALVHAARVMRETVRTSDVVCRMGGEEFLIIIPDTAGPAAIQTAERVRSAVEQQQPAKLKLSRPLTASIGVADSTSAPSLKDLLLKADNALYQVKQNGRNGVRYAGLAAALEHHHHHH | soluble
2 | MLDDTGERIIPKNMKPMNGMLLEHLARYYFSTPYASGRVLDIACGTGYGSVMVAKTRKTEVDQVLGVDFDADVIHYAKQNYYHPKVSFLVGDAMDPYLRNQIGTFDTILSFETIEHVKDDRLFIERMRQLLKKDGTLVLSTPFGQGRGKPSDEPFHYHQLTEEEFRSLFDSFSEKEVFYQRGVTIEPKRTNVHYAFGVAVCKKLEHHHHHH | soluble
3 | MLEEIPSSVEADLMPNLDSNVSSDNGTSKRFRIQANAVEARSFFASLVKGTEYSVAIHPAVQGNITVNLSDVTLDEVLSVVQNMYGYDVMKSGKVIQVYPAGMRTVTIPVDYLQFKRSGRSLTSIVTGSVTSAGTSNSGGSSDSSDSSDSNNSNNGNDSSTTSTGGTRIETITESDFWPMLQQAVANLIGSGKGQSVVVTPQAGVITVRAFPDDIREVREFLGVSQERMQRQVILEAKILEVTLSDGYQQGINWSNLSASIGNSGSIIVNRPASALPPLDAIGTLLGGQTNVTISDGNFEAVLNFMSTQGDLNVLSSPRITAANNQKSVIKVGTDQYFVTELSSNAGNGENSNAVPEVELTPFFSGISLDVTPQIDNKGNVFLHVHPAVIEVTEEVKQLNLGGDFQNIQLPLAKSSIRESDSVIRAKDGDVVVIGGLMKQQNVEQVSKVPFLGDVPALGHLFRNTSNVTQKTELVILLKPTVVGVNSWQKELERSRDLLQEWFPDAQLEHHHHHH | soluble
4 | MLEIKGLRARIVGTNTEVIRGLNLTVADGEVAAIMGQNGAGKSTLSYLLAGRDDYEVIDGDILYNGQSLLEMDPAERAAYGVFLAFQYPMEIPGVATMEFLKVAMNSQRKARGDQELKIPEFIKCVKEISSKLEINMDMLKRPLNVGFSGGEKKRAEILQMALLEPKLCILDETDSGLDIDALKIVADGVNKLRDPKRSFLVITHYQRLLNYIIPDTVHVLYKGRIIKSGDKSLALYLEQNGYADLIREAA | not soluble
5 | MLEKGGIRVIDEKTLEIIVREVLTNLTSDKGTQNQQKTASSSLPKLDPKRDYPLAKNKPELAKSITGKTINEITLQAVREGKVLPDDLKISPETLLAQAEIAEAAGRKQLANNFRRAAELTKVPDKRILEIYNALRPYRSTKEELLAIADELDNAYGAKVCAAFVREAAEVYERRGRLKGME | not soluble
6 | MLELFLKEEWTTEAKEILRPFGQKKLIGIQMGASNRSRQWFVERWIELAKRIIERDEEVVIVFVGSKNELEEISLVAQALPQDRVFISAGRLSLGAAAALIGELGLLFTPDTGPLHIAVALRVKTISLFAVANPKNSLPDYDQSLHRYIKVDRCCEPCVGKRCAYQKCMEAIGVDEVYEEYKKLQELEHHHHHH | soluble
7 | MLELSESNIHLNANAIDKQQAIEMAVSALVQAGNVENGYLQGMLARELQTSTFLGNGIAIPHGTLDTRLMVKKTGVQVFQFPQGIEWGEGNIAYVVIGIAARSDEHLSLLRQLTHVLSDEDTAAKLAKITDVAEFCAILMGETIDPFEIPAANISLDVNTQSLLTLVAINAGQLQVQSAVENRFISEVINNAALPLGKGLWVTDSVVGNVKNALAFSRAKTIFSHNGKAVKGVITVSAVGDQINPTLVRLLDDDVQTTLLNGNSTEILTALLGSSSDVETQSVEGAVVGTFTIRNEHGLHARPSANLVNEVKKFTSKITMQNLTRESEVVSAKSLMKIVALGVTQGHRLRFVAEGEDAKQAIESLGKAIANGLGENVSAVPPSEPDTIEIMGDQIHTPAVTEDDNLPANAIEAVFVIKNEQGLHARPSAILVNEVKKYNASVAVQNLDRNSQLVSAKSLMKIVALGVVKGTRLRFVATGEEAQQAIDGIGAVIESGLGE | not soluble
8 | MLETETGRYSDTLRSALVSLDGDNAWALSESWCGTIQWICPSPYRPHHGRKNWFLGIGRFTADEQEQSDAIRYETLRSSGPGGQHVNKTDSAVRATHLASGISVKVQSERSQHANKRLARLLIAWKLEQQQQENSAALKSQRRMFHHQIERGNPRRTFTGMAFIEGLEHHHHHH | not soluble
9 | MLFDTHAHLNAEQYDTDLEEVIERAKAEKVERIVVVGFDRPTITRAMEMIEEYDFIYAAIGWHPVDAIDMTEEDLAWIKELSAHEKVVAIGEMGLDYHWDKSPKDIQKEVFRNQIALAKEVNLPIIIHNRDATEDVVTILKEEGAEAVGGIMHCFTGSAEVARECMKMNFYLSFGGPVTFKNAKKPKEVVKEIPNDRLLIETDCPFLTPHPFRGKRNEPSYVKYVAEQIAELKEMTFEEIASITTENAKRLFRINLEHHHHHH | not soluble
10 | MLFKRYGDPISLLRTYRLCDLMEFIFYVQEVEQEEKIYNQWLHTQMTQSLKEFKDQQKYRPLRKNKAKSTTKEEQQKALDFASQFVKPRKEGEVS | not soluble
11 | MLFSKETLKSFAQSKGISNIDDDALRVLSQDLEYRIKEVCQEGSKFMVGSKRTKLSIDDINYALTSRNVDPLFGYDPQESLVFRGLPSNVYYVPDEEIDLEEYLDRPLPKVPLRVSIQSHWLAIEGVQPQIPYNPILLEKPVAKKDTLGTYQEEAELKSQNKHMLTKELGMYFDKVIQAMESDEQTAMECLHNESGIQQLVPYFVHHFNEQIVKNIKNKEKLMTVVMVYSSLLKNKYIFVDPYLHQILPSLITCVIGKNVDDDVRKVAADVVKYVFSNFSSSYKTLAPRIINTLSKAWLDREKTESTQYGALFCLSILSKHVVETVIKPKADYYVREINNPRVVGLLKDILQSNGL | soluble
12 | MLGIDLGSNTLRAVQMDEKLNKLKEYEFVIGAAKNLNQSGEISKEAIQRLKNTLSILAKEQDLSKARAVATAAFRKASNTNEIFAHLKKEFGIDFKLIDAKSEAKISVLGMQSGLRRLKIWGEFAYCDLGGASCELSFGKSFKSFDFGIISFYEKNYHSYYKSCISYKKLIKKYPKFIINIKDKKLKIHFLIANPYLKHLAFRAFDEVAMIKKELRSLGAKTVVLNSGVPTTLSALKQNISYEKYEATKVNGKKLCHKDFLNYAIKLFHMEEKKAIKEVGTMRKNYLSAGCLLFYALFDKHKLLVIDEGLREGVCLASMKNIKF | not soluble
13 | MLGPPSREKWSSDFPRWFDWVIETAEVYDYGRYPVKGMGVWMPYGFQIRRRVLEVVRGLLDSTGHEEVLFPLLIPEHLLRRESEHIRGFEGEVYWVTHGGREELDVKLALRPTSETSITYMETFWIKSYRQLPKKYYQVVSIFRYETKATRPMIRLREVTTFKEAHTVHESFEDAERQVLEAIEVYKAIFDRLLIPYVISKRPEWDKFAGALYTIAFDTIMPDGRALQIGTVHHLGQSFTRAFDFRIQMRDERLDHPWQTSYGVSDRVVASLIAVHGDDRGLVIPPSVAPIQVVVIPITPGDEEKRGKVLTYTAKAAEALEKAGLRVHVDDREWERPGAKFYYWEAKGVPIRVEIGLREAEQDTLTIARRDTLEKTEVPLGEAGNRIRELMAQIESSMRERAKSFFGERLLRTESLEEARDWVEGRRGIAEIPWCGRESCGLEMEERVNGKVLGTPWPEEPVEEGKRCPLCGRPAVAWIRLAKTY | soluble
14 | MLGVVPGIGESIQAYKVAKAAKNLQGMKKALDKAATVATAQGYVSKTKIKIGQTELRVTAATDKQLLKAIGEGRTRQVK | not soluble
15 | MLHEIPKSEILKELKRIGAKRVLIQSPEGLRREAEELAGFLEENNIEVFLHGEINYGACDPADREAKLVGCDALIHLGHSYMKLPLEVPTIFVPAFARVSVVEALKENIGEIKKLGRKIIVTTTAQHIHQLKEAKEFLESEGFEVSIGRGDSRISWPGQVLGCNYSVAKVRGEGILFIGSGIFHPLGLAVATRKKVLAIDPYTKAFSWIDPERFIRKRWAQIAKAMDAKKFGVIVSIKKGQLRLAEAKRIVKLLKKHGREARLIVMNDVNYHKLEGFPFEAYVVVACPRVPLDDYGAWRKPVLTPKEVEILLGLREEYEFDEILGGPRESDEPFGISIHSTRLEHHHHHH | not soluble
16 | MLIDDIDFADLYLQQLKLAHRTEKTPDHWDQRAEKMAENCASPTDSYLQQLIAKIDLQGAQTLFDMGCGPGTVSLALADKLTTVYGVDYSQGMLNVAARRAAALKADNVHWIQRAWEEDWSDLPRCDIAVASRSTLVADMRHAMSKLNNQARLRVYTTHLVSTSFVSPAIQRAAGREVIELPNYIFALNVLYQMGIYAHVDFIRGQNCQQDNSTWERFEQNVSWSLGALNDDERERLYHWYQQQDARALAPASRDWALIWWDSVPQEAL | not soluble
17 | MLIKGLSDTLLENPLWQKTYLRSFMQFYSTNSLSWGQLSYEEGEIRNLHYGLIHSFQTSEIDTDSLPRILPANVPKQYTLCQAGDVAFADASEDTDEIGKAVEFIRTHKASVICGLHTIHGRDIKCKTLLGFKRVAFNSHYFHDQIKRLAQGTKVFSITSSNLSSCYIYIPDIVMQKSIVVLFEAYEEQLITNKRLLEQYEKQKRYLLQQMFILEHHHHHH | not soluble
18 | MLIPSKLSRPVRLDHTVVRERLLAKLSGANNFRLALVTSPAGYGKTTLVSQWAAGKNELGWYSLDEGDNQQERFASYLIAAIQQATGGHCSTSEAMAQKRQYASLTSLFAQLFIELAQWHRPLYLVIDDYHLITNPVIHDAMRFFLRHQPENFTLVVLSRNLPQLGIANLRVRDQLLEIGSQQLAFNHQEAKQFFDRRLSSPIEAAESSRMCDDVAGWATALQLIALSARQNHTSAHHSARRLAGINASHLSDYLVDEVLDNVDVSTRHFLLKSAILRSMNDALIVRVTGEENGQMRLEEIERQGLFLQRMDDTGEWFSYHPLFGSFLRQRCQWELAAELPEIHRAAAESWMEQGFPSEAIHHALAAGDAQMLRDILLNHAWGLFNHSELALLEESLKALPWESLLENPRLVLLQAWLMQSQHRYSEVNTLLARAEQEIKGVMDGTLHAEFNALRAQVAINDGNPEEAERLAKLALDELPLAWFYSRIVATSVHGEVLHCKGDLSQSLSLMQQTEQMARHHDVWHYALWSLIQQSEIQFAQGFLQAAWETQERAFQLIKEQHLEQLPMHEFLVRIRAQLLWAWARLDEAEASARSGIAVLSTFQPQQQLQCLTLLVQCSLARGDLDNARSQLNRLENLLGNGRYHCDWISNADKVRVIYWQLTGDKKSAANWLRHTPKPAFANNHFLQGQWRNIARAQILLGEFEPAEIVLEELNENARSLRLMSDLNCNLLLLNQLYWQSGRKNDAQRVLLDALQLANRTGFISHFVIEGEAMAQQLRQLIQLNTLPEMEQHRAQRILREINQHHRHKFAHFDEGFVERLLNHPDVPELIRTSPLTQREWQVLGLIYSGYSNEQIAGELAVAATTIKTHIRNLYQKLGVAHRQDAVQHAQQLLKMMGYGV | not soluble
19 | MLISLIVPIYNVEGFLPRCLDSIIKQEYQNLEIVLVNDGSTDQSGLICDQYAEKDERFIVFHKENGGVSSARNVGLNKANGNYIGFVDPDDWIEPNMINKLYELIIQHKADIAMCGYVKEDINGLLISRPVELSTKILNKEDTLNSILNPNDFRGFLCNKLFSVDLFRKKNLYLDEDIHFCEDLLFCCQAILESKQIVYDSTPYYHYIIHNNNASKSNFSFKKLTALNSLDNIINLLNDQKGIELEQYKNYYMHLNISLLMNGIHEDKIRRQDKERLKKNLYKFKINDLTSKFVKFSCVLARLNLNLYYFIWKNAKPSN | not soluble
